From the domain aggregation screens of Martell et al. (2025)

Test: soluble fraction after stress (log2 fold change); higher = more stays soluble; pooled small domains, quantitative proteomics
Settings: stress: 75 degC
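Also: 20 min heating vs room temperature control held 20 min.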

Sequence	soluble fraction (log2)
HMKPALFSADELNRLYRYGLSLTGERDRAYDLLQTALEKYLRQSQAPANAMRYVRKIMHNQFIDDYR	-1.53
HMKPDWLSDGRLIPDEVMSHLRKIAVHAVEEMGYSPEDVIKILGLSRNTIYDWLKRFREHGYEGLDTKK	-0.957
HMKPLAQQVNDYLAATRTSIATLANEIPGYSRPTISRYLAGKYDGDITTIEKLLAEWLAQRTG	-0.832
HMKPNEYVSGETFPYLGKNYRLKVLHGSENSVRLKGGYFITTISNRDSQLSTVKSLLEDWYQTHADK	0.043
HMKPPTIELSYSEFIELVERGKVSKVIFSSDNYTLKGETVNGENFETVRPPFLEDNLSEILTIHKVPVSSE	-0.109
HMKPSKTVYTTANLNLRNGASMSAAVYTSVSRGTALATTGRTTSGWTQITHRGRTLWASSKYLTTTTPP	-3.17
HMKPSNRSYPTALRMEVIGIIRERYADFGPTLAGEKLAELHGIHLGRETIRQWMMAAGLWKDRR	-1.09
HMKPTVKVPNVVNLSLRNAQIQLQNYGLEVGSISYESSRFKNAVLRQSISEGSVVEKGTTINLVISDGL	-1.56
HMKPVPPLNGTSLRDLALGYAGRYATTAARLKHYLQRKLRERGWGGEDEPDLDGLVARLVELGYVNDEVF	-0.704
HMKQAINFSDLNSLEEGLGIAIRQKWNEVSINDVPEDKIELVEDWINNNRGKYKGINISIGSTY	0.114
HMKQAVESAEAIFEEIARIKKLSLVKSEAEEIARKTGLQKFTIASQLLKNQHAYEMDESEIASLWDKKI	-0.0597
HMKQDFVYNGFVEAKGDDLMVQINYKGETYYVTEGESFGGFTVKSANKDKVVLSGQGGAETVLEFR	-0.186
HMKQENRLKILRKEKGLTQTKLANEIGVSKRTIIAWENDERQIKPDKAQQLADYFGVKEGYLLGYTNN	0.114
HMKQESSEDLLNEVIDKVIDSNPDEKNRLLDGELKLVSFFMGQVMKETKGKANPGVINGLIKKKFNI	-0.701
HMKQISNTDELEAMIQKIIEDNSQQVEKFRSGNEKLFGWFVGQVMKNTQGAANPKVVNEILKKSLK	0.318
HMKQISNTDELESMAKNIIQENPDQVSKFKNGNEKLFGWFVGQMMKSTGGTANPKVVNEILKNLLN	0.134
HMKQLIGYSVIDIKMGKLGEISFVNSKTAQALIHVSKDGKGFYFPWHKQFVKNIDAEKGIMEVEIPKEFLD	-0.974
HMKQLNKRQNDILSFAEKQGYVSVENLAKLFSVTQQTIRRDINYLSDNELLVRTHGGAYYSS	-1.18
HMKQNRNLPVQIINNGKIIESVMTEFNLDIDWVYSEAKRLGYKNIKDIFYAGINRDGQFFIVPLF	-3.06
HMKQNVEAVIKERAIEKARAQVKAVSTHMALEAQSLSKEQLEFEIERIAAQIIDKMPSDFWND	-1.28
HMKQPNFTVIETKILELLFQKDLSSREMQEILKISKDNLIFALQNLLEQEKIVLQTSNTYTVN	-1.88
HMKQPVPDEIYFKRLANATEALGRYPRASERKKFGLNMSKRRYPTLTDFINKAIELGYVEDFR	-0.833
HMKQQAYEQGKAAYQSGDWLRAVTQLGQVKEAGEKNGEVDHLLGNAYMKLGQFESAAYAYNSALEDVA	0.53
HMKQTMIVVMEKDAPQSQIDDMVKRIEGLGLKAHTIVGTQRTVVAAIGEKREDTRESLAGSPGVAEVVPIL	0.239
HMKQYVEPASETEKMVVELWEKVLLTEKIGMHDDFFELGGHSLKAMRLISLYHQEFNVRLSLKSLFEKLK	-0.241
HMKRAVGLDEYRDSIVLKKPEGYTEESYAAYKNAYDALMALDSKETTAEMFANAKSAFEAAQAGLVQKP	0.119
HMKRIFEKKVVTESLNGLRLDKAAATLFADFSRNELGQWIKDEALLVNGKAKKVKEKVSEGDVLALDVELI	0.203
HMKRISDEDLLVMRRIDEVHTYHPTWGYRTITRILRRDDHLLINPKKVRRIMRDMGIYTIYPK	-0.0338

Sequence	soluble fraction (log2)
HMKRITAVISQKKGRDYYYIIVSYYLSNGKRVQRWIKTEFPINGNNKRKLEQKRIEVLQEWQDKLV	-1.23
HMKRLQEQAYDYLKELILSGKMIENEIYSETKLASEIGISRTPIRDALQRLSQDGFIDIIPSKGFRIH	-0.734
HMKRMSKKQLSAVIEKYFSSQPGVTLTLKDIFRNLHLDTHPLKMIALDILEEMSWDDVIMKVSDTSYALNT	0.194
HMKRNLESVLDHIEGIGPKRRKALYKHFGNLDAMRVAELEELESVEGMNKKAALAVYEFFRRNS	0.386
HMKRNTKAEVLEILLNSGETPVSGERLAENLGISRNAVWKAVTALKEDGYNISAKRNSGYILNKS	-0.143
HMKRREENLRRLALSTAERVKRKGKKEILNPMSPQERRIIHLTLQNNKEVVTHSEGEDPYRRVIISPRN	-0.397
HMKRRSLQVGDIVQVRSLNVKGEVVSIGKNEVVVAVGRLQMRAGFDDLDFKERPKEEREVESV	-0.467
HMKRSFGSVRQLRSGNYQARYTGPDTVRHTSPVTYTSKMDAEAWLVDERRKISSGTWTPPAR	-0.193
HMKRSVIVTAERAEVRQKADEGSALVFEAEKNVSLEYLEAAPGGWVKVRHLDGQSGFVRGNQI	-0.309
HMKRTKLEEATEWLRDRLSDGVKYNGEELLREGESADMARRTLRRAAQELGVIIERERGARGRWFWSLP	-0.897
HMKRTLLLEGRTIPYELTQKPVKNINIRVHADGSVRVSAGPWVSPEAVDAVLRQRSAFLLRALDQFAAQAP	-1.91
HMKRVPFAFAGDMLRWAAWLYHVEKRTQNEIAEELEVSRQTVANYLSEAMSQGLVQVQLRSDIIE	-1.98
HMKSAIGEEKAENFAFADLGMDPLSAEGVRTEFGFEQGQFVYKVYFTADGTEYEYWIKASDGSVVKKGMDL	-1.53
HMKSAIKQNILLYLSNKGVTSYEFYKISGVTRGILQQSNGISEDNIAKFLAYAPDVNIEWLLTGKGDMLKH	-1.41
HMKSATGKIPDFISDLPVDEFVRELIVTNAFQPLNKFKEVQNHIGSALKIYVDELTEKRANGTVHILYSHK	0.46
HMKSAYADVAIAKVQDYVNVRAENNEDSEVLGKLYNNSAATVLETTDDGWYKISSGSVTGYVKSEYVVVG	-0.111
HMKSEMYIDLSNALLKMSERDKELLTYRYTMEMSSKEISQITGIKESNVNSYIRRAREKLLKIFNAMNK	-3.73
HMKSFDERQAALNELAKVIEGTGRKAEQDAEFRREQNQLMIDKIDEQLKGDLTDSQREELKKERAALARK	0.174
HMKSGLLNLSTRKQEKIKQALLSEFSNVSLLEAKVANIVTLAEISRGSFYTYFEDIYDAYQWLASI	-0.513
HMKSIFIRADELAAELDVSKALAYKMINQWNEELKAKGYTTVGGRVSRQYYYEKIYGAENVFDF	-1.76
HMKSILDDVVGLGPVRKKALLSAAGGFRKLRDMDVDEVIGLGAVPEEVAREVVTVLAQYNGERDRVEGL	-0.146
HMKSILSEIPGIGPKKRKSLMMQFGSVKNISEASLKDLSSTKGINSNLSKEIFNFFSVEKNN	-0.0299
HMKSKNILLGEYKGKEVHVGEGKYGPFILYDKKFKSIGAYLTENSLMLKDLTIEDYSKIMKFTENSNSKS	-0.91
HMKSKNRLTKSYLDSIPGVGRKRKSILLRYFGSIDQIKRASSEDIANVPGIGKITSDLVYNYFNQ	-0.811
HMKSLAQELVDALGDRIRDGRLKVGDKLPSEAAIEAQYGVSRTVVREAISRLQAAGLVVTRHGIGTFIVGI	-2.45
HMKSLLDQINGIGAIRKRALLNHFGSARAVESASLDEIKSVEGVEAKVAKKIYNFFHEYKNMLR	-1.51
HMKSLLSRREQEVLELVSRGFSYSEIAELKNLSVHTIQTHIKSLYGKLEVHSKMEAVLEATRMGLLPQ	-2.34
